{"source": "patent US10758526B2", "about": "“Combination therapies using agents that target tumor-associated stroma or tumor cells and other pathways” (BIOMED VALLEY DISCOVERIES, INC., priority 2014, dated 2020)", "molecules": {"B1": {"name": "M863: TEM8 monoclonal antibody (hIgG1), VH SEQ ID NO:7 and VL SEQ ID NO:8 (antibody, V domains shown)", "VH": "EVQLVETGAEVKKPGASVKVSCKASGYTFTGYYMHWVRQAPGQGLEWMGWINPTSGSTNYAQKFQGRVTMTRDTSISTAYMELSGLRSDDTAVYYCVRDPGSPKWLAFDPWGQGTLVTVSS", "VL": "DIQLTQSPSSLSASVGDRVTITCRASRAISRYLNWYQQKPGKAPKLLIYAASSLQSGVSSRFSGSGSGTEFTLTISSLQPEDFATYFCQQTYSPPITFGQGTRLEIKR", "modifications": "TEM863 mAb VH; TEM863 mAb VL"}}, "key": {"[1]": {"test_system": "OVCAR3 ovarian cancer model", "experiment": "M825 and M825-MMAE in OVCAR3 ovarian cancer model", "assay_type": "in vivo, mice", "conditions": "0.2 mg/kg, equivalent to maximum MMAE in the 10 mg/kg ADC group", "procedure": "Treatment initiated when tumor volume reached approximately 120 mm^3. M825 was given i.v. at 10 mg/kg and M825-MMAE was given i.v. at 1, 3, or 10 mg/kg, 2 times per week for 3.5 weeks. […] The 10 mg/kg ADC group was redosed on Day 56, 2 times per week."}, "[2]": {"experiment": "Pharmacokinetics of TEM8 antibodies in mouse, single dose", "assay_type": "in vivo", "text": "(§1) Tables 8 and 9 show pharmacokinetic properties of TEM8 antibodies according to the present invention in mouse for single dose (Table 8) and multiple dose (Table 9) treatments."}, "[3]": {"experiment": "Pharmacokinetics of TEM8 antibodies in mouse, multiple dose", "assay_type": "in vivo", "text": "as §1"}}, "note": "Square brackets hold non-standard residues; d marks the D form. Peptide text beside a SMILES is read from it. * marks the point of attachment. Dolaproine = CO[C@@H]([C@@H]1CCCN1)[C@@H](C)C(=O)O; Dil = CC[C@H](C)[C@H](NC)[C@@H](CC(=O)O)OC; X1 = C[C@@H](N*)[C@@H](O)c1ccccc1; NMeV = CN[C@H](C(=O)O)C(C)C"}
{"molecule": "CC[C@H](C)[C@@H]([C@@H](CC(=O)N1CCC[C@H]1[C@H](OC)[C@@H](C)C(=O)N[C@H](C)[C@@H](O)c1ccccc1)OC)N(C)C(=O)[C@@H](NC(=O)[C@@H](NC)C(C)C)C(C)C", "note": "[MMAE, monomethylauristatin (MMAE), reference compound] (H-[NMeV]V[Dil][Dolaproine]-X1)", "values": [{"measurement": "effect on tumor growth", "setting": "[1]", "result": "No effect"}]}
{"molecule": "B1", "values": [{"measurement": "AUCI", "setting": "[2]; 5 mg/kg", "result": 1330.847, "unit": "µg·h/mL"}, {"measurement": "AUCT", "setting": "[2]; 5 mg/kg", "result": 1330.742, "unit": "µg·h/mL"}, {"measurement": "CLF", "setting": "[2]; 5 mg/kg", "result": 3.76, "unit": "mL/h/kg"}, {"measurement": "CMAX", "setting": "[2]; 5 mg/kg", "result": 51300, "unit": "ng/mL"}, {"measurement": "HALF", "setting": "[2]; 5 mg/kg", "result": 8.59, "unit": "h"}, {"measurement": "KEL", "setting": "[2]; 5 mg/kg", "result": 0.0807, "unit": "h⁻¹"}, {"measurement": "TMAX", "setting": "[2]; 5 mg/kg", "result": 3, "unit": "h"}, {"measurement": "VZF", "setting": "[2]; 5 mg/kg", "result": 0.04656, "unit": "L/kg"}, {"measurement": "AUCT", "setting": "[2]; 15 mg/kg", "result": 10721.535, "unit": "µg·h/mL"}, {"measurement": "CMAX", "setting": "[2]; 15 mg/kg", "result": 355000, "unit": "ng/mL"}, {"measurement": "TMAX", "setting": "[2]; 15 mg/kg", "result": 3, "unit": "h"}, {"measurement": "AUCI", "setting": "[3]; 5 mg/kg", "result": 1425.735, "unit": "µg·h/mL"}, {"measurement": "AUCT", "setting": "[3]; 5 mg/kg", "result": 1425.565, "unit": "µg·h/mL"}, {"measurement": "CLF", "setting": "[3]; 5 mg/kg", "result": 3.51, "unit": "mL/h/kg"}, {"measurement": "CMAX", "setting": "[3]; 5 mg/kg", "result": 58600, "unit": "ng/mL"}, {"measurement": "HALF", "setting": "[3]; 5 mg/kg", "result": 14.29, "unit": "h"}, {"measurement": "KEL", "setting": "[3]; 5 mg/kg", "result": 0.0485, "unit": "h⁻¹"}, {"measurement": "TMAX", "setting": "[3]; 5 mg/kg", "result": 3, "unit": "h"}, {"measurement": "VZF", "setting": "[3]; 5 mg/kg", "result": 0.07228, "unit": "L/kg"}, {"measurement": "AUCI", "setting": "[3]; 15 mg/kg", "result": 7272.672, "unit": "µg·h/mL"}, {"measurement": "AUCT", "setting": "[3]; 15 mg/kg", "result": 7271.7, "unit": "µg·h/mL"}, {"measurement": "CLF", "setting": "[3]; 15 mg/kg", "result": 2.06, "unit": "mL/h/kg"}, {"measurement": "CMAX", "setting": "[3]; 15 mg/kg", "result": 147000, "unit": "ng/mL"}, {"measurement": "HALF", "setting": "[3]; 15 mg/kg", "result": 12.64, "unit": "h"}, {"measurement": "KEL", "setting": "[3]; 15 mg/kg", "result": 0.0549, "unit": "h⁻¹"}, {"measurement": "TMAX", "setting": "[3]; 15 mg/kg", "result": 3, "unit": "h"}, {"measurement": "VZF", "setting": "[3]; 15 mg/kg", "result": 0.0376, "unit": "L/kg"}]}
